Test in all cases: cell-based or functional assay
For one test, the target named is hGLP-1R (Homo sapiens, UniProt P43220).
For test [1], the target named is human glucagon receptor (human) (UniProt P47871).
The target of test [2] is T1, human GIP receptor (human) (UniProt P48546).
T1 sequence (looked up): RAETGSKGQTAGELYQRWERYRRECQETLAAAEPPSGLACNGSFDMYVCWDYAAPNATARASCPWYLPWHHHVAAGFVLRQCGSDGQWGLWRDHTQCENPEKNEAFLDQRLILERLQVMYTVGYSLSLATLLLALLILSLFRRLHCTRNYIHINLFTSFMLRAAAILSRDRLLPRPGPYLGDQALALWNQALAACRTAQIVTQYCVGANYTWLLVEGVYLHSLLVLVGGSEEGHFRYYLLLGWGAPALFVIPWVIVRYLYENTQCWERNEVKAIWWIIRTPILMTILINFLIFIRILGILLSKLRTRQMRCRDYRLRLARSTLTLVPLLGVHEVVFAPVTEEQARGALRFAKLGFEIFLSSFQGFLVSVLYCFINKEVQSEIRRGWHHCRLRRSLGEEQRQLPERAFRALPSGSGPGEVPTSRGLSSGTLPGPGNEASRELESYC

Here are results for twelve molecules from patent publication US20240270821A1, “GIP/GLP1/GCG TRI-RECEPTOR AGONISTS AND USES THEREOF” (priority 2023, published 2024).

Substitutions are numbered along the chain they refer to.

human glucagon receptor (human), sequence (P47871 26-477): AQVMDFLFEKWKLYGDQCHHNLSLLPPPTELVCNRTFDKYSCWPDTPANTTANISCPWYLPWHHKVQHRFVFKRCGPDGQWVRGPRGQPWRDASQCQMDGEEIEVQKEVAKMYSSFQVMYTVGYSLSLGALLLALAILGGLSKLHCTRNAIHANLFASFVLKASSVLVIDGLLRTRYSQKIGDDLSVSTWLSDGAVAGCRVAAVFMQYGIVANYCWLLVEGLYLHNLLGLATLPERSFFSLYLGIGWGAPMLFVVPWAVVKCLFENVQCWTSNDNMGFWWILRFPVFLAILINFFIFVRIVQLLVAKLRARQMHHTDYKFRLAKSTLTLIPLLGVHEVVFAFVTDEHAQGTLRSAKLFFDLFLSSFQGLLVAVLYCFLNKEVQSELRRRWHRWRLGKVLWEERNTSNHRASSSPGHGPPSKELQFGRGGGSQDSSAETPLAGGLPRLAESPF
hGLP-1R, sequence (P43220 24-463): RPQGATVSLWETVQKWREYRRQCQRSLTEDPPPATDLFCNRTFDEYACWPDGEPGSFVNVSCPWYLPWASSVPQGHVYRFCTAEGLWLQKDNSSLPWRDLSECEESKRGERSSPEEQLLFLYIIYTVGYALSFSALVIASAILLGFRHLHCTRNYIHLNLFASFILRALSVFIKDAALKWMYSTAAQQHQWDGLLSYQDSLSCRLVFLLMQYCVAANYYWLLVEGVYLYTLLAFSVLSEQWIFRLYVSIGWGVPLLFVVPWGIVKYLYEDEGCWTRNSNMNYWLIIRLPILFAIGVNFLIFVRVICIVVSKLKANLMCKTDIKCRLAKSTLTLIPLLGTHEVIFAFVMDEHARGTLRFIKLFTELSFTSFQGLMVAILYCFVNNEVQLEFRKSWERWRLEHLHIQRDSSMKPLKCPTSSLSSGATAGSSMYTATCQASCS

B1: Example 659 (SEQ ID NO: 665) (peptide)
chain: YXQGTXTSDXSILLDKKAQXAFIEYLEEGGPSSGAPPPEGTE
modifications: synthetic construct; SITE 2: note = 2-Aminoisobutyric Acid; SITE 6: note = alpha-methyl-2-fluoro-L-phenylalanine; SITE 10: note = 3-(4-Pyridyl)-L-alanine; SITE 17: note = Lysine is chemically modified through conjugation of the epsilon-amino group of the Lysine side chain with (gamma-Glu)2-CO-(CH2)1
Consider B1, for which the Relative cAMP EC50 with hGLP-1R was 1.31 nM; in test [1] it was 5.89 nM; in test [2], 0.0673 nM.

B2: Example 650 (SEQ ID NO: 656) (peptide)
chain: YXQGTXTSDXSIXLDKKAQXXFIEYLAEGGPSSGEPPPEGSEE
modifications: synthetic construct; SITE 2: note = 2-Aminoisobutyric Acid; SITE 6: note = alpha-methyl-2-fluoro-L-phenylalanine; SITE 10: note = 3-(4-Pyridyl)-L-alanine; SITE 13: note = alpha-methyl-leucine; SITE 17: note = Lysine is chemically modified through conjugation of the epsilon-amino group of the Lysine
Turning to B2, the Relative cAMP EC50 with hGLP-1R was 0.649 nM; in test [1] it was 16.2 nM; in test [2] it was 0.0814 nM.

B3: Example 651 (SEQ ID NO: 657) (peptide)
chain: B2 chain with A27S
modifications: synthetic construct; SITE 2: note = 2-Aminoisobutyric Acid; SITE 6: note = alpha-methyl-2-fluoro-L-phenylalanine; SITE 10: note = 3-(4-Pyridyl)-L-alanine; SITE 13: note = alpha-methyl-leucine; SITE 17: note = Lysine is chemically modified through conjugation of the epsilon-amino group of the Lysine
B3: the Relative cAMP EC50 in the test with hGLP-1R stood at 1.02 nM; in test [1], 10.7 nM; in test [2], 0.112 nM.

B4: Example 652 (SEQ ID NO: 658) (peptide)
chain: B2 chain with A27T
modifications: synthetic construct; SITE 2: note = 2-Aminoisobutyric Acid; SITE 6: note = alpha-methyl-2-fluoro-L-phenylalanine; SITE 10: note = 3-(4-Pyridyl)-L-alanine; SITE 13: note = alpha-methyl-leucine; SITE 17: note = Lysine is chemically modified through conjugation of the epsilon-amino group of the Lysine
Consider B4, for which the Relative cAMP EC50 was 0.426 nM with hGLP-1R, 15.3 nM in test [1] and 0.0342 nM in test [2].

B5: Example 653 (SEQ ID NO: 659) (peptide)
chain: B2 chain with A27Q
modifications: synthetic construct; SITE 2: note = 2-Aminoisobutyric Acid; SITE 6: note = alpha-methyl-2-fluoro-L-phenylalanine; SITE 10: note = 3-(4-Pyridyl)-L-alanine; SITE 13: note = alpha-methyl-leucine; SITE 17: note = Lysine is chemically modified through conjugation of the epsilon-amino group of the Lysine
For B5, the Relative cAMP EC50 in the test with hGLP-1R amounted to 0.426 nM; in test [1], 7.29 nM; in test [2] it was 0.0303 nM.

B6: Example 672 (SEQ ID NO: 678) (peptide)
chain: YXQGTXTSDXXIXLDXKAAXEFIEXLLEGGPSSGAPPPSGS
modifications: synthetic construct; SITE 2: note = 2-Aminoisobutyric Acid; SITE 6: note = alpha-methyl-2-fluoro-L-phenylalanine; SITE 10: note = 3-(4-Pyridyl)-L-alanine; SITE 11: note = alpha-methyl-L-serine; SITE 13: note = alpha-methyl-leucine; SITE 16: note = L-ornithine; SITE 17: note = Lysine is chemically mo
As for B6, the results for the Relative cAMP EC50 (with hGLP-1R; in test [1]; in test [2]) were 0.389 nM, 1.19 nM and 0.014 nM, respectively.

B7: Example 695 (SEQ ID NO: 701) (peptide)
chain: B6 chain with L27V, A35E
modifications: synthetic construct; SITE 2: note = 2-Aminoisobutyric Acid; SITE 6: note = alpha-methyl-2-fluoro-L-phenylalanine; SITE 10: note = 3-(4-Pyridyl)-L-alanine; SITE 11: note = alpha-methyl-L-serine; SITE 13: note = alpha-methyl-leucine; SITE 16: note = L-ornithine; SITE 17: note = Lysine is chemically mo
For the molecule B7, the Relative cAMP EC50 came out at 0.254 nM with hGLP-1R, 1.93 nM in test [1] and 0.0136 nM in test [2].

B8: Example 693 (SEQ ID NO: 699) (peptide)
chain: B6 chain with L27V
modifications: synthetic construct; SITE 2: note = 2-Aminoisobutyric Acid; SITE 6: note = alpha-methyl-2-fluoro-L-phenylalanine; SITE 10: note = 3-(4-Pyridyl)-L-alanine; SITE 11: note = alpha-methyl-L-serine; SITE 13: note = alpha-methyl-leucine; SITE 16: note = L-ornithine; SITE 17: note = Lysine is chemically mo
Take B8: the figures for the Relative cAMP EC50 (in the test with hGLP-1R; in test [1]; in test [2]) were 0.161 nM, 2.39 nM and 0.0104 nM, respectively.

B9: Example 496 (peptide)
chain: YXQGTFTSDFSXXLDKKAQXAFIEXLLEGGPSSGAPPPGGS
modifications: synthetic construct; SITE 2: note = 2-Aminoisobutyric Acid; SITE 12: note = L-ornithine; SITE 13: note = alpha-methyl-leucine; SITE 17: note = Lysine is chemically modified through conjugation of the epsilon-amino group of the Lysine side chain with (2-[2-(2-Amino-ethoxy)-ethoxy]-acetyl)-(gamma-Glu)
Take B9: the Relative cAMP EC50, nM (0.1% casein) with hGLP-1R amounted to 9.69 nM; in test [1], 8.25 nM; in test [2] it was 0.387 nM.

B10: Example 196 (peptide)
chain: B9 chain with X25Y
modifications: not fully specified; free C-terminus (not amidated); synthetic construct; SITE 2: note = 2-Aminoisobutyric Acid; SITE 12: note = L-ornithine; SITE 13: note = alpha-methyl-leucine; SITE 17: note = Lysine is chemically modified through conjugation of the epsilon-amino group of the Lysine side chain with (2-[2-(2-Amino-ethoxy)-ethoxy]-acetyl)-(gamma-Glu)
With B10, the cAMP Rel EC50, nM (1% HSA) with hGLP-1R turned out to be 458 nM; in test [1] it was 620 nM; in test [2] it was 51.4 nM.

B11: Example 454 (peptide)
chain: YXQGTXTSDXSILLDXIAQXAFIKYLEEGGPSSGAPPPS
modifications: synthetic construct; SITE 2: note = 2-Aminoisobutyric Acid; SITE 6: note = alpha-methyl-2-fluoro-L-phenylalanine; SITE 10: note = 3-(4-Pyridyl)-L-alanine; SITE 16: note = L-ornithine; SITE 20: note = 2-Aminoisobutyric Acid; SITE 24: note = Lysine is chemically modified through conjugation of the eps
In the case of B11, the Relative cAMP EC50, nM (0.1% casein) in the test with hGLP-1R came to 0.821 nM; in test [1], 9.11 nM; in test [2] it was 0.0154 nM.

B12: Example 455 (peptide)
chain: B11 chain with X10Y, L13X, X16K
modifications: synthetic construct; SITE 2: note = 2-Aminoisobutyric Acid; SITE 6: note = alpha-methyl-2-fluoro-L-phenylalanine; SITE 13: note = alpha-methyl-leucine; SITE 20: note = 2-Aminoisobutyric Acid; SITE 24: note = Lysine is chemically modified through conjugation of the epsilon-amino group of the Lysine s
As for B12, the Relative cAMP EC50, nM (0.1% casein) amounted to 0.49 nM in the test with hGLP-1R, 4.36 nM in test [1] and 0.0182 nM in test [2].
